{"source": "patent US20240271115A1", "proteins": {"B1": {"name": "Recombinant IdeS expressed from codon-optimized cDNA IdeS^op2 (pGEX-IdeS^op2), designated Ab-C (protein)", "chain": "RKRCYSTSAVVLAAVTLFALSVDRGVIADSFSANQEIRYSEVTPYHVTSVWTKGVTPPAKFTQGEDVFHAPYVANQGWYDITKTFNGKDDLLCGAATAGNMLHWWFDQNKEKIEAYLKKHPDKQKIMFGDQELLDVRKVINTKGDQTNSELFNYFRDKAFPGLSARRIGVMPDLVLDMFINGYYLNVYKTQTTDVNRTYQEKDRRGGIFDAVFTRGDQSKLLTSRHDFKEKNLKEISDLIKKELTEGKALGLSHTYANVRINHVINLWGADFDSNGNLKAIYVTDSDSNASIGMKKYFVGVNSAGKVAISAKEIKEDNIGAQVLGLFTLSTGQDSWNQTN"}}, "target": "Human IgG in human serum"}
{"protein": "B1", "values": [{"measurement": "IgG cleavage, PAGE-Coomassie stain, purified normalized IdeS samples incubated with human serum for 1 h", "result": "The results showed more effective IgG cleavage by IdeS^op2"}]}
